Measurements reported in patent US20110212853A1, “NOVEL DIAGNOSTIC METHOD” (PROBIODRUG AG, priority 2010, published 2011).

What was measured:
human THP-1 monocytes = test: TransWell chemotaxis assay; type: cell-based; settings: for MCP-1 concentrations needed to elicit the maximum response: after incubation with human DP4, with (pGlu^1) or without (Gln^1) QC pre-incubation, FIG. 12; for influence of pGlu-formation at the N-terminus on chemotactic potency: compared to the respective glutamine-precursors, FIG. 11; for chemotactic potency of N-truncated DP4 cleavage products: truncation by 2 amino acids, FIG. 13
Experimental: The chemotaxis assay was performed using 24 well TransWell plates with a pore size of 5 μm (Corning). THP-1 cells were suspended in RPMI1640 in a concentration of 1*10^6 cells/100 μl and applied in 100 μl aliquots to the upper chamber. Cells were allowed to migrate towards the chemoattractant for 2 h at 37° C. Subsequently, cells from the upper chamber were discarded and the lower chamber was mixed with 50 μl 70 mM EDTA in PBS and incubated for 15 min at 37° C. to release cells attached to the membrane. Afterwards, cells migrated to the lower chamber were counted using a cell counter system (Schärfe System). The chemotactic index was calculated by dividing cells migrated to the stimulus from cells migrated to the negative control.
MCP-1 starting with glutamine 1 (Gln^1-MCP-1) (Peprotech) was incubated with recombinant human QC to generate pGlu^1-MCP-1, or with human recombinant DP4 to generate Asp^3-MCP-1. Concentrations of 1, 5, 10, 50, 100, 500 and 1000 ng/ml of the generated MCP-1 variants were tested using the THP-1 chemotaxis assay (n=3).
MCP-1 with N-terminal glutamine (Gln^1-MCP-1) (Peprotech) was incubated with recombinant human QC and DP4 (Gln^1-MCP-1+QC+DP4), human recombinant DP4 alone (Gln^1-MCP+DP4) and with recombinant human QC in combination with 10 μM of QC-inhibitor 1-(3-(1H-imidazol-1-yl)propyl)-3-(3,4-dimethoxyphenyl)thiourea hydrochloride and DP4 (Gln^1-MCP-1+QC+QCI+DP4). Concentrations of 1, 5, 10, 50, 100, 500 and 1000 ng/ml of generated MCP-1 variants were tested using chemotaxis assay (n=3).
Concentrations of 1, 5, 10, 50, 100, 500 and 1000 ng/ml of a particular MCP were tested using chemotaxis assay (n=3).
For the generation of the DP4 cleavage product, the respective MCPs were incubated with human recombinant DP4 at a 1:100 dilution for 2 h at 30° C. prior to assay. Concentrations of 1, 5, 10, 50, 100, 500 and 1000 ng/ml of a particular MCP were tested using chemotaxis assay (n=3).

[1] = N-terminal degradation of human MCP-1 in human serum, Maldi-TOF mass spectrometry; type: in vitro ADME
Experimental: (§1) For cyclization of the N-terminal glutamine residue into pyroglutamate, MCP-1 was incubated with recombinant human QC for 3 h prior to assay start. In addition, Gln^1-MCP-1 was incubated in human serum in the presence of 9.6 μM DP4 Inhibitor Isoleucyl-Thiazolidide (P32/98) for 24 h (C). The cleavage products were analyzed after 0 min, 10 min, 30 min, 1 h, 2 h, 3 h 5 h and 7 h for Gln^1-MCP-1, 0 min, 30 min, 1 h, 2 h, 3 h 5 h, 7 h and 24 h for pGlu^1-MCP-1 and 0 min, 1 h, 2 h, 3 h, 5 h, 7 h and 24 h for Gln^1-MCP-1 in combination with Isoleucyl-Thiazolidide using Maldi-TOF mass spectrometry.
Matrix-assisted laser desorption/ionization mass spectrometry was carried out using the Voyager De-Pro (Applied Biosystems, Darmstadt) with a linear time of flight analyzer. The instrument was equipped with a 337 nm nitrogen laser, a potential acceleration source and a 1.4 m flight tube. Detector operation was in the positive-ion mode. Samples (5 μl) were mixed with equal volumes of the matrix solution. For matrix solution sinapinic acid was used, prepared by solving 20 mg sinapinic acid (Sigma-Aldrich) in 1 ml acetonitrile/0.1% TFA in water (1/1, v/v). A small volume (≈1 μl) of the matrix-analyte-mixture was transferred to a probe tip.
(§2) Human recombinant MCP-1 carrying an N-terminal glutaminyl residue (Peprotech) was dissolved in 25 mM Tris/HCl, pH 7.6, in a concentration of 100 μg/ml. MCP-1 was either pre-incubated with recombinant human QC (0.006 mg/ml) for 3 h at 30° C. and subsequently incubated with human serum at 30° C. or incubated with human serum without addition of QC. The cleavage products were analyzed using Maldi-TOF mass spectrometry after 0 min, 10 min, 30 min, 1 h, 2 h, 3 h 5 h and 7 h for Gln^1-MCP-1 and 0 min, 30 min, 1 h, 2 h, 3 h 5 h, 7 h and 24 h for pGlu^1-MCP-1.

recombinant human DP4 = recombinant human DP4 (Homo sapiens, UniProt P27487); test: N-terminal degradation of human MCP-2, MCP-3 and MCP-4 by DP4, Maldi-TOF mass spectrometry; type: in vitro ADME; settings: for truncation by DP4 of uncyclized variants starting with N-terminal glutamine: recombinant human DP4, 30° C.; for proteolytic degradation by DP4 with N-terminal pGlu-residue: pre-incubated with recombinant human QC 3 h, then DP4
recombinant human DP4, sequence (P27487 whole entry, the tested form may be a part): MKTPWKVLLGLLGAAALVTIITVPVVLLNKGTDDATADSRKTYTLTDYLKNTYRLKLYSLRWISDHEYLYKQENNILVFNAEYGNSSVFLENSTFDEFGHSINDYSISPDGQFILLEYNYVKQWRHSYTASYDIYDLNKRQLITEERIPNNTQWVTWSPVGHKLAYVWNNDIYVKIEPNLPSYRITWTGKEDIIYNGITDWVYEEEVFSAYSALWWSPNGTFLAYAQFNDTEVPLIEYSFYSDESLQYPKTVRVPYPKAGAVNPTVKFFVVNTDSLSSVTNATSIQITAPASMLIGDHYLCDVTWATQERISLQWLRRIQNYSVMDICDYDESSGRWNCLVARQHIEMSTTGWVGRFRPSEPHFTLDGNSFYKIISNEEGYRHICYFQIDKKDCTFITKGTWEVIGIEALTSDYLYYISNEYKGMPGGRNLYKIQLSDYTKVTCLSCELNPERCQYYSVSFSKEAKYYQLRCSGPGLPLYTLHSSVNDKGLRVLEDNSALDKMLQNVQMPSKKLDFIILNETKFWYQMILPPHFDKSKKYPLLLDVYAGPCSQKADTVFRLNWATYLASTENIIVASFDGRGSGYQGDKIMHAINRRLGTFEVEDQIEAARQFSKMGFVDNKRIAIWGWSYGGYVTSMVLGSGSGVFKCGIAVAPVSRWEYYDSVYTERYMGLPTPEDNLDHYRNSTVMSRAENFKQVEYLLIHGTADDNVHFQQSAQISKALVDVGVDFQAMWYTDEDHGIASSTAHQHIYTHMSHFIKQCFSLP
Experimental: Resulting DP4 cleavage products were analyzed using Maldi-TOF mass spectrometry after 0 min, 15 min, 30 min, 1 h, 2 h, 4 h and 24 h.
(§3) MCP-3 was either pre-incubated with recombinant human QC (0.0006 mg/ml) for 3 h at 30° C. and subsequently incubated with recombinant human DP4 (0.00012 mg/ml) at 30° C. or incubated with recombinant human DP4 (0.00012 mg/ml) without prior QC application. Resulting DP4 cleavage products were analyzed using Maldi-TOF mass spectrometry after 0 min, 15 min, 30 min, 1 h, 2 h, 4 h and 24 h.
as §3, with “MCP-4” for “MCP-3”, “(0.00006” for “(0.00012”

MCP-1 receptors = MCP-1 receptors (Homo sapiens, UniProt P41597); settings: cited from earlier work
MCP-1 receptors, sequence (P41597 whole entry): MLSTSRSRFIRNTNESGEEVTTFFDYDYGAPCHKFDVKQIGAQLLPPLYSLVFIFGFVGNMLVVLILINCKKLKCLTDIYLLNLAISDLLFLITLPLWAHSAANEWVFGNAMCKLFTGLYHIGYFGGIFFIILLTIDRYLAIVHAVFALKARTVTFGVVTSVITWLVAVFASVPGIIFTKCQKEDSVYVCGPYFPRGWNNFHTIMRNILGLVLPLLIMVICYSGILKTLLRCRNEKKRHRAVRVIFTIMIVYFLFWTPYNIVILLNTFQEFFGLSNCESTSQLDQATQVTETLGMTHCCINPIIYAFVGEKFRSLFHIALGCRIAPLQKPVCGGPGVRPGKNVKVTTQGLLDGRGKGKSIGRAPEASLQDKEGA

[2] = test system: DP4 or a DP4-like activity in human serum; test: Degradation of Gln1-MCP-1 in human serum in presence of DP4 inhibitor; type: biochemical; settings: 9.6 μM inhibitor, 24 h, FIG. 7C
Experimental: as §1, §2

[3] = incubation with human serum without QC pre-incubation, FIG. 7A

Gln1-MCP-1: Recombinant human MCP-1(1-76) (SEQ ID NO: 1) starting with an N-terminal glutamine (Peprotech)
MCP-1 concentrations needed to elicit the maximum response (human THP-1 monocytes): 500 to 1000 ng/mL
final ratio, full-length pGlu1-MCP-1 [1, 3]: ~40%
final ratio, truncated Asp3-MCP-1 [1, 3]: approx. 60%

MCP-2: Human recombinant MCP-2 (SEQ ID NO: 11) carrying an N-terminal glutaminyl residue (Peprotech)
influence of pGlu-formation at the N-terminus on chemotactic potency (human THP-1 monocytes): no influence
chemotactic potency of N-truncated DP4 cleavage products (human THP-1 monocytes): partial inactivation
truncation by DP4 of uncyclized variants starting with N-terminal glutamine (recombinant human DP4): readily truncated

MCP-4: Human recombinant MCP-4 (SEQ ID NO: 13) carrying an N-terminal glutaminyl residue (Peprotech)
influence of pGlu-formation at the N-terminus on chemotactic potency (human THP-1 monocytes): slightly increases
chemotactic potency of N-truncated DP4 cleavage products (human THP-1 monocytes): partial inactivation
proteolytic degradation by DP4 with N-terminal pGlu-residue (recombinant human DP4): protects
truncation by DP4 of uncyclized variants starting with N-terminal glutamine (recombinant human DP4): readily truncated

MCP-3: Human recombinant MCP-3 (SEQ ID NO: 12) carrying an N-terminal glutaminyl residue (Peprotech)
influence of pGlu-formation at the N-terminus on chemotactic potency (human THP-1 monocytes): no influence
chemotactic potency of N-truncated DP4 cleavage products (human THP-1 monocytes): partial inactivation
proteolytic degradation by DP4 with N-terminal pGlu-residue (recombinant human DP4): protects
truncation by DP4 of uncyclized variants starting with N-terminal glutamine (recombinant human DP4): readily truncated

MCP-1, 1-10: peptide corresponding to MCP-1, 1-10 (QPDAINAPVT; UniProt P13500 24-33, looked up, fragment) [reference compound]
receptor-binding activities (MCP-1 receptors): lacked detectable receptor-binding activities

MCP-1: monocyte chemotactic protein-1, CCL2; form in the cited binding study not stated
Kd (MCP-1 receptors): 2.8 nM

pGlu1-MCP-1: human MCP-1 with N-terminal pyroglutamic acid, generated by incubation of Gln1-MCP-1 with recombinant human QC
MCP-1 concentrations needed to elicit the maximum response (human THP-1 monocytes): 50 to 100 ng/mL
degradation in human serum ([1]; pre-incubation with human QC, chosen time-frame (24 h) and dilution of the serum, FIG. 7B): no degradation

CCC(C)C(N)C(=O)N1CCSC1 (stereo not shown) [Isoleucyl-Thiyzolidide, Isoleucyl-Thiazolidide]
N-terminal degradation of MCP-1 in serum [2]: prevents the N-terminal degradation
